The chains are these.
B1: humanized anti-TrkA monoclonal antibody H1L1-IgG4 (antibody)
heavy: EVQLLESGGGLVQPGGSLKLSCKASGYAFTNYWLGWMKQRPGHGLEWIGDFYPRTGNTFYNENFKGKVTLTADKSSNTAYMQLSSLTSEDSAVYLCARAGTGFDYWGQGTTLTVSSASTKGPSVFPLAPCSRSTSESTAALGCLVKDYFPEPVTVSWNSGALTSGVHTFPAVLQSSGLYSLSSVVTVPSSSLGTKTYTCNVDHKPSNTKVDKRVESKYGPPCPPCPAPEAAGGPSVFLFPPKPKDTLMISRTPEVTCVVVDVSQEDPEVQFNWYVDGVEVHNAKTKPREEQFNSTYRVVSVLTVLHQDWLNGKEYKCKVSNKGLPSSIEKTISKAKGQPREPQVYTLPPSQEEMTKNQVSLTCLVKGFYPSDIAVEWESNGQPENNYKTTPPVLDSDGSFFLYSKLTVDKSRWQEGNVFSCSVMHEALHNHYTQKSLSLSLG
light: EIVMTQSPATLSLSVGERVTLSCKASENVGGYVSWYQQKPDQSPKLLIYGASSRHTGVPDRFTGSGSETDFTLTISSVQAEDLAAYHCGQNYIYPFTFGGGTKLEIKRTVAAPSVFIFPPSDEQLKSGTASVVCLLNNFYPREAKVQWKVDNALQSGNSQESVTEQDSKDSTYSLSSTLTLSKADYEKHKVYACEVTHQGLSSPVTKSFNRGEC
B2: human-mouse chimeric anti-TrkA monoclonal antibody 23E12 (H0L0-IgG4) (antibody)
heavy: QVQLQQSGAELVRPGTSVKISCKASGYAFTNYWLGWMKQRPGHGLEWIGDFYPRTGNTFYNENFKGKVTLTADKSSNTAYMQLSSLTSEDSAVYLCARAGTGFDYWGQGTTLTVSSASTKGPSVFPLAPCSRSTSESTAALGCLVKDYFPEPVTVSWNSGALTSGVHTFPAVLQSSGLYSLSSVVTVPSSSLGTKTYTCNVDHKPSNTKVDKRVESKYGPPCPPCPAPEAAGGPSVFLFPPKPKDTLMISRTPEVTCVVVDVSQEDPEVQFNWYVDGVEVHNAKTKPREEQFNSTYRVVSVLTVLHQDWLNGKEYKCKVSNKGLPSSIEKTISKAKGQPREPQVYTLPPSQEEMTKNQVSLTCLVKGFYPSDIAVEWESNGQPENNYKTTPPVLDSDGSFFLYSKLTVDKSRWQEGNVFSCSVMHEALHNHYTQKSLSLSLG
light: SIVMTQSPKSMSMSVGERVTLSCKASENVGGYVSWYQQKPDQSPKLLIYGASSRHTGVPDRFTGSGSETDFTLTISSVQAEDLAAYHCGQNYIYPFTFGGGTKLEIKRTVAAPSVFIFPPSDEQLKSGTASVVCLLNNFYPREAKVQWKVDNALQSGNSQESVTEQDSKDSTYSLSSTLTLSKADYEKHKVYACEVTHQGLSSPVTKSFNRGEC
B3: humanized anti-TrkA monoclonal antibody H3L1-IgG4 (antibody, V domains shown)
VH: EVQLLESGGGLVQPGGSLKLSCKASGYAFTNYWLGWMKQRPGHGLEWIGDFYPRTGNTFYNENFKGQVTMSVDKSITTAYLQWNSLKASDTAMYYCARAGTGFDYWGQGTTLTVSS
VL: EIVMTQSPATLSLSVGERVTLSCKASENVGGYVSWYQQKPDQSPKLLIYGASSRHTGVPDRFTGSGSETDFTLTISSVQAEDLAAYHCGQNYIYPFTFGGGTKLEIKR
B4: humanized anti-TrkA monoclonal antibody H3L2-IgG4 (antibody, V domains shown)
VH: EVQLLESGGGLVQPGGSLKLSCKASGYAFTNYWLGWMKQRPGHGLEWIGDFYPRTGNTFYNENFKGQVTMSVDKSITTAYLQWNSLKASDTAMYYCARAGTGFDYWGQGTTLTVSS
VL: EIVMTQSPATLSLSVGERVTLSCKASENVGGYVSWYQQKPDQSPKLLIYGASSRATGVPDRFTGSGSETDFTLTISSVQAEDLAAYHCGQNYIYPFTFGGGTKLEIKR

The target of this experiment is TrKA (ELISA antigen, target Human-TrKA) (human) (UniProt P04629). The experiment in a line: ELISA, antibody 0 to 20 µg/mL, plateau. For orientation: An ELISA detects its analyte on a solid surface through an enzyme-linked reagent.
Sequence of TrKA (ELISA antigen, target Human-TrKA) (human) (P04629 33-423 limits assumed): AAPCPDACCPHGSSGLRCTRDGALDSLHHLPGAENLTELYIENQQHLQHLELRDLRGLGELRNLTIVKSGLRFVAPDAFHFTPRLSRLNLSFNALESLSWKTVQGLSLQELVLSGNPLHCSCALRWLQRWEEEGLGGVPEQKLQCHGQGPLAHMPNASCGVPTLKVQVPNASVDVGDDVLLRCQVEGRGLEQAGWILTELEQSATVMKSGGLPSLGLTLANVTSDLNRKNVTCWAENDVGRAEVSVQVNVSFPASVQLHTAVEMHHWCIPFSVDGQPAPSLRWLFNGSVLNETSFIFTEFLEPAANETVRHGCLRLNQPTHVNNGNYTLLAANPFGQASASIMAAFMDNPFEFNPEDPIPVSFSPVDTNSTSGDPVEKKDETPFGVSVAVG
Take B1: the OD450 stood at 3.
For B2 the value was 3; for B3, 3; for B4, 3.

For the origin of these results see patent US20230357411A1.
